The values below come from the supplement of paper PMC5998384.

In data set [1] the test system is HeLa Kyoto. Description: thermal stability score vs G1/S (z-score of summed log2 fold changes over temperatures); higher = more thermally stable than in G1/S.
Data set [2] relates to HeLa Kyoto. Description: solubility change mitosis vs G1/S (difference of NP-40 vs SDS log2 ratios) (log2 ratio difference); higher = more soluble in mitosis.
The test system of data set [3] is HeLa Kyoto. In words: solubility in G1/S (NP-40 vs SDS abundance) (log2 ratio); higher = more soluble. Conditions: cell cycle stage: G1/S.
Data set [4] relates to HeLa Kyoto. In words: melting temperature (median over replicates), in situ; higher = more thermally stable.
The mark [5] stands for this setting: cell cycle stage: early G1 (4.5 h after nocodazole release).
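For melting temperature (median over replicates), in situ in this document: HeLa Kyoto cells synchronized by double thymidine or nocodazole block, proteins quantified by TMT10plex mass spectrometry, three independent biological replicates.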
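For solubility change mitosis vs G1/S (difference of NP-40 vs SDS log2 ratios) in this document: synchronized HeLa Kyoto cells (double thymidine block for G1/S, nocodazole release for mitosis), protein amounts in NP-40 versus SDS lysates quantified by mass spectrometry, three biological replicates.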
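For solubility in G1/S (NP-40 vs SDS abundance) in this document: HeLa Kyoto cells arrested at G1/S by double thymidine block, proteins quantified by TMT10plex mass spectrometry in mild NP-40 versus SDS extracts, three biological replicates.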
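For thermal stability score vs G1/S (z-score of summed log2 fold changes over temperatures) in this document: synchronized HeLa Kyoto cells, proteins quantified by TMT10plex mass spectrometry, three biological replicates, mitosis taken 0.5 h after nocodazole release, G1/S directly after double thymidine block.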

As for “MLLWPLLLLLLLLPTLALLRQQRSQDARLSWLAGLQHRVAWGALVWAATWQRRRLEQSTLHVHQSQQQALRWCLQGAQRPHCSLRRSTDISTFRNHLPLTKASQTQQEDSGEQPLPPTSNQDLGEASLQATLLGLAALNKAYPEVLAQGRTARVTLTSPWPRPLPWPGNTLGQVGTPGTKDPRALLLDALRSPGLRALEAGTAVELLDVFLGLETDGEELAGAIAAGNPGAPLRERAAELREALEQGPRGLALRLWPKLQVVVTLDAGGQAEAVAALGALWCQGLAFFSPAYAASGGVLGLNLQPEQPHGLYLLPPGAPFIELLPVKEGTQEEAASTLLLAEAQQGKEYELVLTDRASLTRCRLGDVVRVVGAYNQCPVVRFICRLDQTLSVRGEDIGEDLFSEALGRAVGQWAGAKLLDHGCVESSILDSSAGSAPHYEVFVALRGLRNLSEENRDKLDHCLQEASPRYKSLRFWGSVGPARVHLVGQGAFRALRAALAACPSSPFPPAMPRVLRHRHLAQCLQERVVS [GHDC]”, the thermal stability score with HeLa Kyoto [1] (setting [5]) was found to be 0.585; with HeLa Kyoto [1] (cell cycle stage: mitosis), 1.25. Further, the “solubility change mitosis (log2)” value in the data set with HeLa Kyoto [2] was -0.154. For the same sequence, the “solubility in G1/S (log2)” value in the data set on HeLa Kyoto [3] was -0.104. Also, the melting temperature amounted to 53.7 °C in the data set on HeLa Kyoto [4] (cell cycle stage: G1/S) and 55.1 °C in the data set with HeLa Kyoto [4] (cell cycle stage: mitosis).

Consider “MAAAEGPVGDGELWQTWLPNHVVFLRLREGLKNQSPTEAEKPASSSLPSSPPPQLLTRNVVFGLGGELFLWDGEDSSFLVVRLRGPSGGGEEPALSQYQRLLCINPPLFEIYQVLLSPTQHHVALIGIKGLMVLELPKRWGKNSEFEGGKSTVNCSTTPVAERFFTSSTSLTLKHAAWYPSEILDPHVVLLTSDNVIRIYSLREPQTPTNVIILSEAEEESLVLNKGRAYTASLGETAVAFDFGPLAAVPKTLFGQNGKDEVVAYPLYILYENGETFLTYISLLHSPGNIGKLLGPLPMHPAAEDNYGYDACAVLCLPCVPNILVIATESGMLYHCVVLEGEEEDDHTSEKSWDSRIDLIPSLYVFECVELELALKLASGEDDPFDSDFSCPVKLHRDPKCPSRYHCTHEAGVHSVGLTWIHKLHKFLGSDEEDKDSLQELSTEQKCFVEHILCTKPLPCRQPAPIRGFWIVPDILGPTMICITSTYECLIWPLLSTVHPASPPLLCTREDVEVAESPLRVLAETPDSFEKHIRSILQRSVANPAFLKASEKDIAPPPEECLQLLSRATQVFREQYILKQDLAKEEIQRRVKLLCDQKKKQLEDLSYCREERKSLREMAERLADKYEEAKEKQEDIMNRMKKLLHSFHSELPVLSDSERDMKKELQLIPDQLRHLGNAIKQVTMKKDYQQQKMEKVLSLPKPTIILSAYQRKCIQSILKEEGEHIREMVKQINDIRNHVNF [NUP88]”, for which the thermal stability score was -1.46 in the data set on HeLa Kyoto [1] (setting [5]) and -0.755 in the data set with HeLa Kyoto [1] (cell cycle stage: mitosis). In addition, the “solubility change mitosis (log2)” value in the data set with HeLa Kyoto [2] worked out at 0.171. Further, the “solubility in G1/S (log2)” value in the data set with HeLa Kyoto [3] is -0.268. Besides, the melting temperature was 50.4 °C in the data set on HeLa Kyoto [4] (cell cycle stage: G1/S) and 48.8 °C in the data set with HeLa Kyoto [4] (cell cycle stage: mitosis).

Consider “MAHQTGIHATEELKEFFAKARAGSVRLIKVVIEDEQLVLGASQEPVGRWDQDYDRAVLPLLDAQQPCYLLYRLDSQNAQGFEWLFLAWSPDNSPVRLKMLYAATRATVKKEFGGGHIKDELFGTVKDDLSFAGYQKHLSSCAAPAPLTSAERELQQIRINEVKTEISVESKHQTLQGLAFPLQPEAQRALQQLKQKMVNYIQMKLDLERETIELVHTEPTDVAQLPSRVPRDAARYHFFLYKHTHEGDPLESVVFIYSMPGYKCSIKERMLYSSCKSRLLDSVEQDFHLEIAKKIEIGDGAELTAEFLYDEVHPKQHAFKQAFAKPKGPGGKRGHKRLIRGPGENGDDS [TWF2]”, for which the thermal stability score was -0.101 in the data set with HeLa Kyoto [1] (setting [5]) and -1.11 in the data set with HeLa Kyoto [1] (cell cycle stage: mitosis). Besides, the “solubility change mitosis (log2)” value with HeLa Kyoto [2] is -0.23. For the same sequence, in the data set with HeLa Kyoto [3], the “solubility in G1/S (log2)” value was 0.275. In addition, the melting temperature in the data set on HeLa Kyoto [4] (cell cycle stage: G1/S) is 53.6 °C; in the data set on HeLa Kyoto [4] (cell cycle stage: mitosis) it was 53 °C.

“MAFPHRPDAPELPDFSMLKRLARDQLIYLLEQLPGKKDLFIEADLMSPLDRIANVSILKQHEVDKLYKVENKPALSSNEQLCFLVRPRIKNMRYIASLVNADKLAGRTRKYKVIFSPQKFYACEMVLEEEGIYGDVSCDEWAFSLLPLDVDLLSMELPEFFRDYFLEGDQRWINTVAQALHLLSTLYGPFPNCYGIGRCAKMAYELWRNLEEEEDGETKGRRPEIGHIFLLDRDVDFVTALCSQVVYEGLVDDTFRIKCGSVDFGPEVTSSDKSLKVLLNAEDKVFNEIRNEHFSNVFGFLSQKARNLQAQYDRRRGMDIKQMKNFVSQELKGLKQEHRLLSLHIGACESIMKKKTKQDFQELIKTEHALLEGFNIRESTSYIEEHIDRQVSPIESLRLMCLLSITENGLIPKDYRSLKTQYLQSYGPEHLLTFSNLRRAGLLTEQAPGDTLTAVESKVSKLVTDKAAGKITDAFSSLAKRSNFRAISKKLNLIPRVDGEYDLKVPRDMAYVFGGAYVPLSCRIIEQVLERRSWQGLDEVVRLLNCSDFAFTDMTKEDKASSESLRLILVVFLGGCTFSEISALRFLGREKGYRFIFLTTAVTNSARLMEAMSEVKA [VPS33B]”: the thermal stability score in the data set on HeLa Kyoto [1] (setting [5]) came to 0.623; in the data set on HeLa Kyoto [1] (cell cycle stage: mitosis) it was 0.549. The “solubility change mitosis (log2)” value in the data set with HeLa Kyoto [2] is -0.189. Further, the “solubility in G1/S (log2)” value in the data set with HeLa Kyoto [3] was -0.121. The melting temperature was 49.9 °C in the data set on HeLa Kyoto [4] (cell cycle stage: G1/S) and 49.4 °C in the data set with HeLa Kyoto [4] (cell cycle stage: mitosis).

Take “MAGPRGALLAWCRRQCEGYRGVEIRDLSSSFRDGLAFCAILHRHRPDLLDFDSLSKDNVFENNRLAFEVAEKELGIPALLDPNDMVSMSVPDCLSIMTYVSQYYNHFCSPGQAGVSPPRKGLAPCSPPSVAPTPVEPEDVAQGEELSSGSLSEQGTGQTPSSTCAACQQHVHLVQRYLADGRLYHRHCFRCRRCSSTLLPGAYENGPEEGTFVCAEHCARLGPGTRSGTRPGPFSQPKQQHQQQLAEDAKDVPGGGPSSSAPAGAEADGPKASPEARPQIPTKPRVPGKLQELASPPAGRPTPAPRKASESTTPAPPTPRPRSSLQQENLVEQAGSSSLVNGRLHELPVPKPRGTPKPSEGTPAPRKDPPWITLVQAEPKKKPAPLPPSSSPGPPSQDSRQVENGGTEEVAQPSPTASLESKPYNPFEEEEEDKEEEAPAAPSLATSPALGHPESTPKSLHPWYGITPTSSPKTKKRPAPRAPSASPLALHASRLSHSEPPSATPSPALSVESLSSESASQTAGAELLEPPAVPKSSSEPAVHAPGTPGNPVSLSTNSSLASSGELVEPRVEQMPQASPGLAPRTRGSSGPQPAKPCSGATPTPLLLVGDRSPVPSPGSSSPQLQVKSSCKENPFNRKPSPAASPATKKATKGSKPVRPPAPGHGFPLIKRKVQADQYIPEEDIHGEMDTIERRLDALEHRGVLLEEKLRGGLNEGREDDMLVDWFKLIHEKHLLVRRESELIYVFKQQNLEQRQADVEYELRCLLNKPEKDWTEEDRAREKVLMQELVTLIEQRNAIINCLDEDRQREEEEDKMLEAMIKKKEFQREAEPEGKKKGKFKTMKMLKLLGNKRDAKSKSPRDKS [MICALL1]”: the thermal stability score with HeLa Kyoto [1] (setting [5]) is -0.815; in the data set on HeLa Kyoto [1] (cell cycle stage: mitosis), 1.14. In addition, in the data set with HeLa Kyoto [2], the “solubility change mitosis (log2)” value is -0.0692. Further, the “solubility in G1/S (log2)” value with HeLa Kyoto [3] came out at 0.417. Also, the melting temperature worked out at 49.4 °C with HeLa Kyoto [4] (cell cycle stage: G1/S) and 50.5 °C with HeLa Kyoto [4] (cell cycle stage: mitosis).

Take “MPGRAPLRTVPGALGAWLLGGLWAWTLCGLCSLGAVGAPRPCQAPQQWEGRQVMYQQSSGRNSRALLSYDGLNQRVRVLDERKALIPCKRLFEYILLYKDGVMFQIDQATKQCSKMTLTQPWDPLDIPQNSTFEDQYSIGGPQEQITVQEWSDRKSARSYETWIGIYTVKDCYPVQETFTINYSVILSTRFFDIQLGIKDPSVFTPPSTCQMAQLEKMSEDCSW [EPDR1]”: the thermal stability score in the data set with HeLa Kyoto [1] (setting [5]) is -1.3; in the data set with HeLa Kyoto [1] (cell cycle stage: mitosis), -2.65. For the same sequence, the “solubility change mitosis (log2)” value with HeLa Kyoto [2] is -0.162. For the same sequence, the “solubility in G1/S (log2)” value in the data set with HeLa Kyoto [3] stood at 0.348. Also, the figures for the melting temperature with HeLa Kyoto [4] (cell cycle stage: G1/S) and in the data set on HeLa Kyoto [4] (cell cycle stage: mitosis) were 56.1 °C and 55 °C, respectively.
